Results taken from patent US20240382677A1 (Regeneron, published 2024).
One block for each binder: values may come before it.

Key:
[1] = biological target: T1, monkey PD-1 with mFc (monkey PD-1-mFc) (monkey); assay: SPR 25C, mAb captured
T1 construct: also called monkey PD-1 dimer; MfPD-1 dimer
T1 chain: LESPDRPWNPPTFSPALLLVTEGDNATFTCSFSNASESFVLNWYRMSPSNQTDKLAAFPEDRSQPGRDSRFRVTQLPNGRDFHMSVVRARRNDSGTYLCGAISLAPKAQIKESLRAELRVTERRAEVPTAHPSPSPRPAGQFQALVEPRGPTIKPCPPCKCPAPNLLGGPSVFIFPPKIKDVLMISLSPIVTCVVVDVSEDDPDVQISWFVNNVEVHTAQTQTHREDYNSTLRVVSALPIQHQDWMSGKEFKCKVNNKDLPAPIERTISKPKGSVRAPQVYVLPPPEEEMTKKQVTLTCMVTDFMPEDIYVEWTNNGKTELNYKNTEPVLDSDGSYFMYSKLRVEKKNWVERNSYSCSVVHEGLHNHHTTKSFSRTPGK

[2] = biological target: T1, monkey PD-1 with mFc (monkey PD-1-mFc); assay: SPR 37C, mAb captured;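 further: Real-time binding of antigen to purified anti-PD-1 antibodies, measured by surface plasmon resonance on a Biacore 4000 or T200 instrument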
[3] = biological target: recombinant human PD-1 expressed with a C-terminal human IgG1 Fc tag (hPD-1-hFc) (human); assay: SPR Biacore 3000, captured hPD-L1-mFc
recombinant human PD-1 expressed with a C-terminal human IgG1 Fc tag (hPD-1-hFc) (human), sequence (chain, as listed by the source limits assumed): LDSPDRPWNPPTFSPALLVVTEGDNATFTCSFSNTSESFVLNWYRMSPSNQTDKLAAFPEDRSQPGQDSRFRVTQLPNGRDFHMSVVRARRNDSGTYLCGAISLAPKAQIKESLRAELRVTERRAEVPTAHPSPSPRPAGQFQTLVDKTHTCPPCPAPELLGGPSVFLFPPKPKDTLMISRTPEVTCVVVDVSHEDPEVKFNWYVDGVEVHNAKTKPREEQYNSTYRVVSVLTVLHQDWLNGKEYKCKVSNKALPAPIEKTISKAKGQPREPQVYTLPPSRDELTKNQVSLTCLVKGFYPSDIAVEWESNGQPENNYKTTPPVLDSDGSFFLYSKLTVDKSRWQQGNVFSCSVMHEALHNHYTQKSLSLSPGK

[4] = biological target: T2, human PD-1 dimer (human PD-1-mFc or human PD-1-hFc) (human, Fc-mediated homodimer; one copy of the chain is given.); assay: SPR Biacore, mAb captured, 25 C
T2 construct: also called hPD-1-mFc; hPD1-hFc; not shown: The C-terminal Fc tag
T2 sequence (chain, as listed by the source limits assumed): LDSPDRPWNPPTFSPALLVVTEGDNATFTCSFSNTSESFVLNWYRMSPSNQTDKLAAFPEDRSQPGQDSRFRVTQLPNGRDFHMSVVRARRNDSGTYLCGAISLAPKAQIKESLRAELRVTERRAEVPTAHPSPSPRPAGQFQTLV

[5] = biological target: T3, recombinant cynomolgus monkey PD-1 expressed with a C-terminal myc-myc-hexahistidine tag (cynomolgus monkey); assay: SPR Biacore, mAb captured, 25 C
T3 construct: also called MfPD-1-MMH; MIPD-1-MMH
T3 chain: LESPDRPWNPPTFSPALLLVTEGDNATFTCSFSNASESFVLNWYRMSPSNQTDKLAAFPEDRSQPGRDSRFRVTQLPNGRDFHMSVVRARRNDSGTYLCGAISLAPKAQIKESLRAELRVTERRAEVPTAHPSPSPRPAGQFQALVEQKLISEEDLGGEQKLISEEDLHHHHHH

[6] = biological target: T3, recombinant cynomolgus monkey PD-1 …; assay: SPR Biacore, mAb captured, 37 C
[7] = biological target: T2, human PD-1 dimer (human PD-1-mFc or …); assay: SPR Biacore, mAb captured, 37 C
[8] = biological target: T4, polyclonal rabbit anti-mouse antibody (GE Catalog #BR-1008-38) coupled to the CM5 Biacore sensor surface (rabbit); assay: SPR Biacore 3000, antibody alone over the anti-mouse Fc capture surface of the hPD-L1-mFc assay (background control)
T4 construct: also called anti-mouse Fc capture surface

[9] = biological target: PD-1 chimera hPD1-hCD300a on Jurkat/AP1-Luc cells (human); assay: cell-based or functional assay
[10] = biological target: T5, recombinant human PD-1 dimer expressed with a C-terminal mouse IgG2a Fc tag (hPD-1-mFc) (human); assay: BLI Octet Red 96, captured hPD-L1-hFc
T5 construct: also called human PD-1-mFc

[11] = biological target: T6, recombinant human PD-1 expressed with a C-terminal myc-myc-hexahistidine tag (human); assay: SPR Biacore, mAb captured, 37 C
T6 construct: monomeric reagent; also called hPD-1-MMH; human PD-1-MMH

[12] = biological target: T5, recombinant human PD-1 dimer expressed …; assay: competition ELISA, 1.5 nM hPD-1-mFc, coated hPD-L1-hFc
[13] = biological target: T5, recombinant human PD-1 dimer expressed …; assay: competition ELISA, 1.5 nM hPD-1-mFc, coated hPD-L1-hFc; * below assay bottom

100 nM Monkey PD-1-mFc Bound [1]: 83 RU | t½ [1]: 67 min | 100 nM Monkey PD-1-mFc Bound [2]: 40 RU | binding of the mixture of 100 nM hPD-1-hFc and 500 nM antibody [3]: -5 RU
B1: H4xH9119P2 (antibody, V domains shown)
VH: EVQLVESGGGLVQPGRSLRLSCAASGFTFEDYAMHWVRQAPGKGLEWVSGIGWSNVKIGYADSVKGRFTISRDNVRNSLYLQMNSLRTEDTAFYYCVKAYTSMLTLYFDYWGQGTLVTVSS
VL: not shown
notes: human IgG4 Fc with 2 or more amino acid changes (US20100331527)

koff [4]: 0.000152 s⁻¹
B2: H4xH9119P2 (antibody, V domains shown)
VH: B1 VH
VL: not shown
notes: human IgG4 Fc with 2 or more amino acid changes as in US20100331527 (H4xH prefix)

kon [5]: 8530 M⁻¹ s⁻¹ | t½ [6]: 3.6 min
B3: H2aM7788N (antibody, mouse IgG2a, V domains shown)
VH: EVQLVESGGGLVQPGGSLRLSCGASGFTFRNYDMHWVRQITGKGLEWVSAIGSAGDTYYPDSVKGRFTISRENAKNSLYLQMNSLRVGDTAVYYCTRDIHCSSTRCYGMDVWGQGTTVTVSS
VL: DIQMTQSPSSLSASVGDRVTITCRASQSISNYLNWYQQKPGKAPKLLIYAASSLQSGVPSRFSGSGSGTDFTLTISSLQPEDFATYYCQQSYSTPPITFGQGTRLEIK
notes: human variable regions with mouse IgG2a Fc (H2aM prefix); also called H2M7788N; H2aM7788M

binding result [5]: no binding (tested: 200 nM)
B4: H2aM7796N (antibody, mouse IgG2a, V domains shown)
VH: QVQLVESGGGVVQPGRSLRLSCAASGFTFSSYGMHWVRQAPGKGLEWVAIIWSDGDSEYNLDSVKGRFTISRDNSKNTLYLQMNSLRVEDSAVYYCARDRDLEDIWGQGTMVTVSS
VL: DIQMTQSPSSLSASVGDRVTITCRASQGIRNDLGWYQQKPGKAPKRLIYAASNLQSGVPSRFSGSGSGTEFTLTISSLQPEDFATYYCLQHNSYPLTFGGGTKVEIK
notes: mouse IgG2a Fc; also called H2M7796N

t½ [7]: 65 min
B5: H2aM7794N (antibody, V domains shown)
VH: QLQLQESGPDLVKPSDTLSLTCTVSDDSISSTTYYWAWIRQPPGKGLEWIGSMSYNGNNYYNPSLKSRVAISAGTSQKQFSLKLTSVTAADTAVYHCARHLGYNGNWYPFDFWGQGILVTVSS
VL: not shown
notes: human variable regions with mouse IgG2a Fc (H2aM prefix); also called H2M7794N

Kd [4]: 786 pM
B6: H4xH9008P (antibody, V domains shown)
VH: EVQLVESGGGLVRPGGSLRLSCAASGFTFSTYAMAWVRQTPGKGLEGVSAIGGSGDSTYYVDSVKGRFTISRDNSKSTLFLQMNSLRAEDTAVYYCVKVRNYDGSFDIWGQGTMVTVSS
VL: not shown
notes: human IgG4 Fc with 2 or more amino acid changes as in US20100331527 (H4xH prefix); also called H4x19008P

100 nM Monkey PD-1-mFc Bound [1]: 17 RU | t½ [1]: 4 min | 100 nM Monkey PD-1-mFc Bound [2]: 6 RU | t½ [2]: 1.1 min | % Blocking [3]: -265% | binding of the mixture of 100 nM hPD-1-hFc and 500 nM antibody [3]: 365 RU
B7: H4H9068P2 (antibody, V domains shown)
VH: EVQLVESGGGLVQRGGSLRLSCAASGFSFSSYAMNWVRQAPGKGLEWVSTISDSGGSTYYADSVKGRFTISRDNSKNTLSLQMNSLRAEDTAVYYCAKDQGGSYPYYFHYWGQGTLVTVSS
VL: not shown

100 nM Monkey PD-1-mFc Bound [1]: 84 RU | t½ [1]: 77 min | 100 nM Monkey PD-1-mFc Bound [2]: 94 RU | t½ [2]: 19 min | binding of the mixture of 100 nM hPD-1-hFc and 500 nM antibody [3]: -6 RU
B8: H4xH9145P2 (antibody, V domains shown)
VH: QVQLVESGGGVVQPGRSLRLSCSASGFTFSAYAMHWVRQAPGKGLEWVAAISYGGSDKYYADSVKGRFTISRDNSKNTLYLQMNSLRTDDTAVYYCAKSAHWNFFFDYWGQGTLVTVSS
VL: not shown
notes: as for B1

% Blocking [3]: 91% | binding of the mixture of 100 nM hPD-1-hFc and 500 nM antibody [3]: 9 RU | 500 nM of anti-PD-1 monoclonal antibody (RU) [8]: -7 RU
B9: H4H9048P2 (antibody, human IgG4 S228P, kappa, V domains shown)
VH: QVQLVQSGAEVKRPGSSVKVSCKVSGVTFRNFAIIWVRQAPGQGLEWMGGIIPFFSAANYAQSFQGRVTITPDESTSTAFMELASLRSEDTAVYYCAREGERGHTYGFDYWGQGTLVTVSS
VL: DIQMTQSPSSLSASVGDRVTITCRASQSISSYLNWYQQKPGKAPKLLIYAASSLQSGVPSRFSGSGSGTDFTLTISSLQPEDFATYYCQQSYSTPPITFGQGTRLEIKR
notes: human IgG4 Fc

Concentration (M) of Antibody at 150% activation [9]: 6.62e-09 M | binding of the mixture of 100 nM hPD-1-mFc and 500 nM antibody [10]: -0.01 nm
B10: H2aM7780N (antibody, mouse IgG2a, V domains shown)
VH: QVQLVESGGGVVQSGRSLRLSCAASGFTFSSYGMHWVRQAPGKGLEWVAVIWYDGSNIYYSDSVKGRFTISRANSKNTLYLQMNSLRAEDTAVYYCARPGHWNYFFEYWGQGTLVTVSS
VL: DIQMTQSPSSLSASVGDRVTITCRASQSINNYLNWYQQKPGKAPKLLIYTASSLQSGVPSRFSGSGSGTDFTLTISSLQPEDFATYYCQQSYSTPPLTFGQGTQLEIK
notes: mouse IgG2a Fc; human variable regions; also called H2M7780N

100 nM Monkey PD-1-mFc Bound [1]: 64 RU | t½ [1]: 94 min | 100 nM Monkey PD-1-mFc Bound [2]: 60 RU | t½ [2]: 14 min | binding of the mixture of 100 nM hPD-1-hFc and 500 nM antibody [3]: -5 RU
B11: H4xH9128P2 (antibody, V domains shown)
VH: QVQLQESGPGLVKPSETLSLTCTVSGGSISSYHWNWIRQSPGKGLEWIGYIYYIGSTDYNPSLESRVTISVDTSKNQFSLKLSSVTAADTAVYYCARVPVGATGASDVWGQGTMVTVSS
VL: not shown
notes: as for B1

100 nM Monkey PD-1-mFc Bound [1]: 52 RU | t½ [1]: 104 min | 100 nM Monkey PD-1-mFc Bound [2]: 46 RU | t½ [2]: 23 min | binding of the mixture of 100 nM hPD-1-hFc and 500 nM antibody [3]: 0 RU
B12: H4xH9120P2 (antibody, V domains shown)
VH: QVQLVQSGAEVKRPGASVKVSCKASGYTFTSFYMYWVRQAPGQGLEWMGIINPSDGSTSNAQKFQGRVTMTRDTSTSTVYMELSSLRSEDTAVYYCARRVAGDIFDIWGQGTMVTVSS
VL: not shown
notes: as for B1

kon [11]: 68600 M⁻¹ s⁻¹
B13: H4xH9120P2 (antibody, V domains shown)
VH: B12 VH
VL: not shown
notes: as for B2

Kd [5]: 3800 pM
B14: H4H7798N (antibody, human IgG4, V domains shown)
VH: EVQLLESGGVLVQPGGSLRLSCAASGFTFSNFGMTWVRQAPGKGLEWVSGISGGGRDTYFADSVKGRFTISRDNSKNTLYLQMNSLKGEDTAVYYCVKWGNIYFDYWGQGTLVTVSS
VL: DIQMTQSPSSLSASVGDSITITCRASLSINTFLNWYQQKPGKAPNLLIYAASSLHGGVPSRFSGSGSGTDFTLTIRTLQPEDFATYYCQQSSNTPFTFGPGTVVDFRR
notes: human IgG4 Fc; also called M4H7798N; HAH7798N

100 nM Monkey PD-1-mFc Bound [1]: 31 RU | t½ [1]: 129 min | 100 nM Monkey PD-1-mFc Bound [2]: 36 RU | t½ [2]: 45 min | binding of the mixture of 100 nM hPD-1-hFc and 500 nM antibody [3]: -1 RU | % blocking at 200 nM antibody [12]: 96%
B15: H4H9019P (antibody, human IgG4, V domains shown)
VH: EVQLVESGGGVVRPGGSLRLSCAASGFTFDDYGMSWVRQVPGKGLEWVSGISWNDGKTVYAESVKGRFIISRDNAKNSLYLEMNSLRAEDTALYYCARDWQYLIERYFDYWGQGTLVTVSS
VL: not shown
notes: human IgG4 Fc; also called H4xH9019P

100 nM Monkey PD-1-mFc Bound [1]: 95 RU | t½ [1]: 70 min | 100 nM Monkey PD-1-mFc Bound [2]: 81 RU | t½ [2]: 15 min | IC50 [13]: < 750 pM
B16: H4xH9034P (antibody, V domains shown)
VH: EVQLVESGGGVVRPGGSLRLSCTASGFTFDDYGMSWVRQAPGKGLEWISGIGWTGGRSSYADSVRGRFTISRDNAKNSLYLQMNSLGAEDTALYYCARDRQWLVQWYFDYWGQGTLVTVSS
VL: not shown

t½ [6]: 0.6 min
B17: H4xH9034P (antibody, V domains shown)
VH: B16 VH
VL: not shown
notes: human IgG4 Fc with 2 or more amino acid changes as in US20100331527 (H4xH prefix); also called H4xH9034P2; H4xH8034P2

100 nM Monkey PD-1-mFc Bound [1]: 74 RU | t½ [1]: 81 min | 100 nM Monkey PD-1-mFc Bound [2]: 52 RU | t½ [2]: 15 min | binding of the mixture of 100 nM hPD-1-hFc and 500 nM antibody [3]: -3 RU
B18: H4xH9135P2 (antibody, V domains shown)
VH: EVQLVESGGSVVRPGGSLRLSCVVSGFTFEDYGLSWVRQIPGKGLEWVSGISWTGGNTGYADSVKGRFTISRDNAKNSLYLQMNSLRAEDTALYHCTRDRQWLMQWYFDYWGQGTLVTVSS
VL: not shown
notes: as for B1
